How the values were obtained:
Surface area calculation = experiment: Surface area calculation
Procedure: A surface area calculation was also performed to determine the change in surface area between the conversion of BCA to BCA-Ac18 and BCA to BCA-Hex18. It was calculated that the reaction with acetic anhydride changed the surface area of BCA by 400 Å^2 and the reaction with hexanoic anhydride changed the surface area of BCA by 1180 Å^2. Since this change is a factor of 2.9, it can be concluded that this estimate that each modification with hexanoic anhydride adds three times the amount of surface area than modification with acetic anhydride is justified.

BCA = target: T1, BCA (Bos taurus, UniProt P00921); experiment: Effect of DNSA present in the denaturing solution on rate of SDS denaturation; set-up: species or system bovine; conditions: DNSA present with the protein in the denaturing SDS solution
T1 construct: purchased Sigma-Aldrich (St. Louis, Mo.)
T1 sequence (P00921 whole entry): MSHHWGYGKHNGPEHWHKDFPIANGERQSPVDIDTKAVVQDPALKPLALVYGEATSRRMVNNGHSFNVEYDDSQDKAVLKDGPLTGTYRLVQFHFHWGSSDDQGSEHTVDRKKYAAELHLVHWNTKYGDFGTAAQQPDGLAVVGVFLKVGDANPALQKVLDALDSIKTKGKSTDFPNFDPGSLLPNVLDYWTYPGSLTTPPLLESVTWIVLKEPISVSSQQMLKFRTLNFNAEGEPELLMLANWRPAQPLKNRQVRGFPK
Procedure: The kinetics of unfolding were determined as follows. The rates of denaturation of BCA and BCA-Ac18 were measured by incubating the protein (200 nM) in solutions of different concentrations of SDS. Immediately prior to the measurement, an aliquot of solution containing protein and SDS was mixed with a solution containing DNSA and the same concentration of SDS; this protocol minimized the possibility that DNSA might stabilize the native conformation of the protein, and influence the rate of its denaturation. When BCA was denatured in concentrations of SDS of 4 mM and higher, DNSA was added to the original, denaturing solution because the rate of denaturation was too fast to follow with manual mixing of aliquots of protein and DNSA. It was observed that DNSA, when present with the protein in the denaturing solution, reduced the rates of denaturation by factors of about 2-10.

| factor by which rates of denaturation are reduced (BCA) | Compound | ratio of surface area change, hexanoic vs acetic anhydride (Surface area calculation) |
| --- | --- | --- |
| – | BCA-Hex18: BCA with all 18 lysines modified with hexanoic anhydride | 2.9 |
| 2-10 | CN(C)c1cccc2c(S(N)(=O)=O)cccc12 [DNSA, Dansyl amide] | – |

From patent publication US20080113421A1, “Stabilizing proteins against denaturation and inactivation by charged detergents using chemical modifications, including modifications that increase net charge” (President and Fellows of Harvard College, priority 2006, published 2008)
